Source: patent US20240400677A1 (ELECTRA THERAPEUTICS, published 2024)
Changes are numbered by the printed parent chain.

B1: Antibody 41 (scFv, V domains shown)
VH: QVQLVQSGAEVKKPGSSVKVSCKASGGTFSNYAISWVRQAPGQGLEWMGGIIPIFGSTASYAQKFQGRVTITADESTSTAYMELSSLRSEDTAVYYCARGVGDDTLTDWGQGTLVTVSS
VL: DIVMTQSPLSLPVTPGEPASISCRSSQSLLHSNGYNYLDWYLQKPGQSPQLLIYAASSLQSGVPDRFSGSGSGTDFTLKISRVEAEDVGVYYCMQALQTPLTFGGGTKVEIK
notes: scFv in crude PPE, V5/myc-tagged
B2: Antibody 25 (scFv, V domains shown)
VH: EVQLLESGGGLVQPGGSLRLSCAASGFTVGSWYMSWVRQAPGKGLEWVAHVSDDGSNEFYADSVKGRFTISRDNSKNTLYLQMNSLRAEDTAVYYCARSPGYCSSTSCYRYYGMDVWGQGTTVTVSS
VL: DIQMTQSPSSLSASVGDRVTITCRTSQSIGTYLNWYQQKPGKAPKLLIYDASNLPTGVPSRFSGSGSGTDFTLTISSLQPEDFATYYCQNYNSALFGPGTKVDIK
notes: as for B1
B3: Antibody 49 (scFv, V domains shown)
VH: QVQLVQSGAEVKKPGSSVKVSCKASGGTFSSYAISWVRQAPGQGLEWMGVINPSGGSTSYAQKFQGRVTITADESTSTAYMELSSLRSEDTAVYYCARESRGYYGMDVWGQGTTVTVSS
VL: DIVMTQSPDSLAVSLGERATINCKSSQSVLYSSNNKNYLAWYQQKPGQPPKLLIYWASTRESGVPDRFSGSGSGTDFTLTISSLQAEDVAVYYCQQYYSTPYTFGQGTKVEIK
notes: as for B1
B4: Antibody 42 (scFv, V domains shown)
VH: QVQLVQSGAEVKKPGASVKVSCKASGYTFTSYHMHWVRQAPGQGLEWMGWMNPNSGNTGYAQKFQGRVTMTRDTSTSTVYMELSSLRSEDTAVYYCARGGRVVRGVIKGWFDPWGQGTLVTVSS
VL: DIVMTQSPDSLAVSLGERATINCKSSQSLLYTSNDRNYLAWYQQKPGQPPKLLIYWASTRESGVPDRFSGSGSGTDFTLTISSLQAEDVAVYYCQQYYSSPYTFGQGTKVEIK
notes: as for B1
B5: Antibody 15 (scFv, V domains shown)
VH: QVQLVQSGAEVKKPGASVKVSCKASGYSFTSYGISWVRQAPGQGLEWMGWISPYNGNTNYAQKLQGRVTMTRDTSTSTVYMELSSLRSEDTAVYYCAREAYGDYGDYFDYWGQGTLVTVSS
VL: DIQMTQSPSSLSASVGDRVTITCRASQGVGDRSAWYQQKPGKAPKLLIYDASNLETGVPSRFSGSGSGTDFTLTISSLQPEDFATYYCQQADTFPYTFGQGTKLEIK
notes: as for B1
B6: Antibody 30 (scFv, V domains shown)
VH: QVQLVQSGAEVKKPGASVKVSCKASGYTFTNFDINWVRQAPGQGLEWMGWISAYNGHTNYAQNLQGRVTMTRDTSTSTVYMELSSLRSEDTAVYYCAQEAAAGYFDYWGQGTLVTVSS
VL: B5 VL with G28D, V29I, G30R, D31N, R32D, S33L, A91S, D92Y, T93G, F94T
notes: as for B1
B7: Antibody 10 (scFv, V domains shown)
VH: QVQLVQSGAEVKKPGASVKVSCKASGGTFSNYDISWVRQAPGQGLEWMGMIDPSGGSTSYAQKFQGRVTMTRDTSTSTVYMELSSLRSEDTAVYYCARPYSSGWYYFDYWGQGTLVTVSS
VL: DIQMTQSPSSLSASVGDRVTITCQASQDIHNYLNWYQQKPGKAPKLLIYDASNLETGVPSRFSGSGSGTDFTLTISSLQPEDFATYYCQQSYNTPPTFGQGTRLEIK
notes: as for B1
B8: Antibody 23 (scFv, V domains shown)
VH: QVQLVQSGAEVKKPGASVKVSCKASGGTFSNYDINWVRQAPGQGLEWMGWISAYNGNTNYAQKLQGRVTMTRDTSTSTVYMELSSLRSEDTAVYYCAAEAYGDYSLDPWGQGTLVTVSS
VL: B7 VL with D28G, H30S, N31S, D50A, N53S, E55Q, T56N, N93S, P96I
notes: as for B1
B9: Antibody 47 (scFv, V domains shown)
VH: QVQLVQSGAEVKKPGASVKVSCKASGYTFTTYGISWVRQAPGQGLEWMGWMDPNSGSTGYAQKFQGRVTMTRDTSTSTVYMELSSLRSEDTAVYYCARGRGNSYYYYYMDVWGKGTTVTVSS
VL: DIQMTQSPSSLSASVGDRVTITCRASQRIGSYLNWYQQKPGKAPKLLIYGASNLQSGVPSRFSGSGSGTDFTLTISSLQPEDFATYYCQQANSFPFTFGPGTKVDIK
notes: as for B1
B10: Antibody 18 (scFv, V domains shown)
VH: QVQLVQSGAEVKKPGASVKVSCKASGYTFTGYYMHWVRQAPGQGLEWMGWMNPNSGNTGYAQKFQGRVTMTRDTSTSTVYMELSSLRSEDTAVYYCARGSGYDAGVFDYWGQGTLVTVSS
VL: DIQMTQSPSSLSASVGDRVTITCRASQGIGNDLAWYQQKPGKAPKLLIYDAKDLHPGVPSRFSGSGSGTDFTLTISSLQPEDFATYYCQQSYSFPRTFGQGTRLEIK
notes: as for B1
B11: Antibody 50 (scFv, V domains shown)
VH: QVQLVQSGAEVKKPGASVKVSCKASGYTFTGYYMHWVRQAPGQGLEWMGTINPSGGSTSYAQKFQGRVTMTRDTSTSTVYMELSSLRSEDTAVYYCVKGNGYYDLWGQGTLVTVSS
VL: DIQMTQSPSSLSASVGDRVTITCRASQSISSWLAWYQQKPGKAPKLLIYDTSNLQGGVPSRFSGSGSGTDFTLTISSLQPEDFATYYCQQYDSFPWTFGQGTKVEIK
notes: as for B1

Molecular target: T1, cynomolgus monkey SIRPγ on CHO cells (cynomolgus monkey, UniProt Q9P1W8 29-386 (human entry))
T1 construct: also called Cyno SIRPγ CHO
T1 chain: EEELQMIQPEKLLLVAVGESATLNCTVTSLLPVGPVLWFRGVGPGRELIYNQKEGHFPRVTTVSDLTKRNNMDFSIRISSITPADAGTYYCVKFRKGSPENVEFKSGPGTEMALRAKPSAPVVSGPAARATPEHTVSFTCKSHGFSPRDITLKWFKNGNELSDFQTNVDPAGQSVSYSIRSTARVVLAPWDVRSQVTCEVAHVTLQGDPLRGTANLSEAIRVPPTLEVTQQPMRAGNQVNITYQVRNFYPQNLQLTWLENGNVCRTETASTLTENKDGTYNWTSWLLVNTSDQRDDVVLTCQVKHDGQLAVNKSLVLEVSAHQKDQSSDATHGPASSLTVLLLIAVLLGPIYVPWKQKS
Test: flow cytometry, myc-scFv PPE
How it was run: (§1)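 Stably transfected CHO cells were incubated with titrated antibodies, and binding was detected with a fluorescent anti-human IgG secondary. Median fluorescence intensity was recorded at each concentration. For the myc-scFv format, crude periplasmic extract was incubated with the SIRP-expressing lines and parental CHO-K1, and fold change <2.0 was scored as non-binder.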

Binder | MFI fold change over parental CHO
B1 | 36.1 fold
B2 | 10.3 fold
B3 | 18.3 fold
B4 | 14.5 fold
B5 | 3.71 fold
B6 | 3.76 fold
B7 | 23.1 fold
B8 | 16.5 fold
B9 | 14.2 fold
B10 | 16.2 fold
B11 | 30.8 fold

Molecular target: T2, human SIRPγ on stably transfected CHO cells (human, UniProt Q9P1W8 29-387)
T2 construct: also called Human SIRPγ CHO
T2 sequence (Q9P1W8 29-387 limits assumed): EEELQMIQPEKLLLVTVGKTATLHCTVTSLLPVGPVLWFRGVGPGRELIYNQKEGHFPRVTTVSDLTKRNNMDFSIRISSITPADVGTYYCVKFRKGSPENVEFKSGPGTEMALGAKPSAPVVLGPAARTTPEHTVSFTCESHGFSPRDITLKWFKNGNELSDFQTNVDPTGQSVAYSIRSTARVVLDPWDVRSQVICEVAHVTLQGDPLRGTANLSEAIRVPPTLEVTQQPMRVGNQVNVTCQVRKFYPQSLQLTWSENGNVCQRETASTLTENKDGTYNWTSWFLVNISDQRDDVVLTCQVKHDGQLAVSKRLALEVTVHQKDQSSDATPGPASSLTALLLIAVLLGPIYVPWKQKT
Test: flow cytometry, myc-scFv PPE
How it was run: as §1

Binder | MFI fold change over parental CHO
B1 | 25.5 fold
B2 | 19.5 fold
B3 | 18.6 fold
B4 | 15.9 fold
B5 | 17 fold
B6 | 5.94 fold
B7 | 38.3 fold
B8 | 21.6 fold
B9 | 17.3 fold
B10 | 25.2 fold
B11 | 12.8 fold

Molecular target: T3, cynomolgus monkey SIRPγ-His monomer protein (cynomolgus monkey, UniProt Q9P1W8 29-359 (human entry), limits assumed)
T3 construct: also called Cyno SIRPγ; Cyno SIRPγ-His
T3 chain: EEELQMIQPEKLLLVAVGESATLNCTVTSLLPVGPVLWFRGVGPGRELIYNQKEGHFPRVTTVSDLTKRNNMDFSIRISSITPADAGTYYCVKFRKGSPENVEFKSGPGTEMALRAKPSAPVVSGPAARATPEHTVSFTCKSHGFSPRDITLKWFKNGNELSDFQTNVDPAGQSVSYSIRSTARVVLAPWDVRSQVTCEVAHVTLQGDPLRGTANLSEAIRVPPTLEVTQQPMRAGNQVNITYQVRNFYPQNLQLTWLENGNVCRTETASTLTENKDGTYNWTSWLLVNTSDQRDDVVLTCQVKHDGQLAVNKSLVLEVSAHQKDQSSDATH
Test: BLI Octet, captured scFv PPE, cyno SIRP
Description: Unique binders were further tested for binding to human SIRPαV1, human SIRPαV2, and human SIRPβ1. Briefly, biotinylated anti-V5 was immobilized onto streptavidin biosensors. Each V5-tagged SIRPγ scFv antibody as crude PPE was captured by the anti-V5 antibody. SIRP-His monomer protein at 500 nM was exposed to the biosensor for binding to SIRP scFv. The biosensors were then exposed to wash buffer to measure off-rate kinetics. The resulting association and dissociation kinetics (kdis) was analyzed. […] Similarly, cross-reactivity to cynomolgus monkey SIRPγ, cynomolgus monkey SIRPα, and cynomolgus monkey SIRPβ1 were tested.

Binder | binding result
B1 | binds
B2 | binds
B3 | binds
B4 | binds
B5 | binds
B6 | binds
B7 | binds
B8 | binds
B9 | binds
B10 | binds
B11 | binds

Molecular target: T4, cynomolgus monkey SIRPα on CHO cells (cynomolgus monkey, UniProt A0A2K5VYQ9 31-507)
T4 construct: whole, on cells; also called Cyno SIRPα CHO
T4 sequence: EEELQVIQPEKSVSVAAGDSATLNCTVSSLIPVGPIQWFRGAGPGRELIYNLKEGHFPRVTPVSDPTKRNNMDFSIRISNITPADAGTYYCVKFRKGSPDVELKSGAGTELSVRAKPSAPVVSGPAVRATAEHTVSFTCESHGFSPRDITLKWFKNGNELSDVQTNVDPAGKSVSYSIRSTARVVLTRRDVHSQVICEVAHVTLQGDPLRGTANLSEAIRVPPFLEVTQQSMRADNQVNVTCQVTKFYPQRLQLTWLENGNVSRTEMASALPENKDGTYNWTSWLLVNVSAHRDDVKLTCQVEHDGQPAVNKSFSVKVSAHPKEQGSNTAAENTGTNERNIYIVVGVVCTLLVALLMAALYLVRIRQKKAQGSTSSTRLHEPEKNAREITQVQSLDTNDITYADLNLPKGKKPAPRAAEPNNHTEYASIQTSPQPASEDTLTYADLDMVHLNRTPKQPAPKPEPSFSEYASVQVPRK
Test: flow cytometry

Binder | binding result
B1 | no binding (tested: fold change <2.0)
B2 | no binding (tested: fold change <2.0)
B3 | no binding (tested: fold change <2.0)
B4 | no binding (tested: fold change <2.0)
B5 | no binding (tested: fold change <2.0)
B6 | no binding (tested: fold change <2.0)
B7 | no binding (tested: fold change <2.0)
B8 | no binding (tested: fold change <2.0)
B9 | no binding (tested: fold change <2.0)
B10 | no binding (tested: fold change <2.0)
B11 | no binding (tested: fold change <2.0)

Molecular target: T5, human SIRPβ1 on CHO cells (co-transfected with DAP12) (human, UniProt O00241 30-398)
T5 construct: whole, on cells; co-transfected with DAP12; also called Human SIRPβ1 CHO
T5 sequence (O00241 30-398): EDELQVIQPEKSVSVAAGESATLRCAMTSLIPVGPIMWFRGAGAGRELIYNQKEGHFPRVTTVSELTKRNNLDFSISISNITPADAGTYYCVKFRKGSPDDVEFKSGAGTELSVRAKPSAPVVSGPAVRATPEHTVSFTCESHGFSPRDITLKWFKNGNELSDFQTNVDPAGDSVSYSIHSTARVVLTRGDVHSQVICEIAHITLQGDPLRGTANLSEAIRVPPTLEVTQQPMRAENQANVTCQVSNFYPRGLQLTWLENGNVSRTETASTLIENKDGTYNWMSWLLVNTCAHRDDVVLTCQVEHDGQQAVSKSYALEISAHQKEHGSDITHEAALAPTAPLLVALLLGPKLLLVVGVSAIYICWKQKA
Test: flow cytometry

Binder | binding result
B1 | no binding (tested: fold change <2.0)
B2 | no binding (tested: fold change <2.0)
B3 | no binding (tested: fold change <2.0)
B4 | no binding (tested: fold change <2.0)
B5 | no binding (tested: fold change <2.0)
B6 | no binding (tested: fold change <2.0)
B7 | no binding (tested: fold change <2.0)
B8 | no binding (tested: fold change <2.0)
B9 | no binding (tested: fold change <2.0)
B10 | no binding (tested: fold change <2.0)
B11 | no binding (tested: fold change <2.0)

Molecular target: T6, human SIRPγ-His monomer protein (human, UniProt Q9P1W8 29-360)
T6 construct: also called hSIRPγ
T6 sequence (Q9P1W8 29-360 limits assumed): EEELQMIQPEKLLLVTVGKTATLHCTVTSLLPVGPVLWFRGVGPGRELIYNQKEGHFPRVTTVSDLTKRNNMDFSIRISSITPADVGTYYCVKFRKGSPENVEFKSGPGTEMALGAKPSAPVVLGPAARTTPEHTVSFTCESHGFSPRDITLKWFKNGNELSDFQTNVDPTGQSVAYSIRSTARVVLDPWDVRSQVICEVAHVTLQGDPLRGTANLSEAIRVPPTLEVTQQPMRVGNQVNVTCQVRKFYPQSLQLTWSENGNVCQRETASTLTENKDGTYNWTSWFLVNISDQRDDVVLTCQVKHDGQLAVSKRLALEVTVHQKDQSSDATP
Test: BLI Octet, V5-scFv PPE captured, SIRP-His 500 nM

Binder | kdis
B1 | > 0.01 s⁻¹
B2 | 0.001 to 0.01 s⁻¹
B3 | > 0.01 s⁻¹
B4 | > 0.01 s⁻¹
B5 | 0.001 to 0.01 s⁻¹
B6 | 0.001 to 0.01 s⁻¹
B7 | 0.001 to 0.01 s⁻¹
B8 | 0.001 to 0.01 s⁻¹
B9 | > 0.01 s⁻¹
B10 | 0.001 to 0.01 s⁻¹
B11 | > 0.01 s⁻¹
